# In patent US20150344570A1 (published 2015):
# Where a chain is given by its changes, count along the chain named. In names and notes the source's numbering stands. Where two headings read alike, the source gives them in different places.
# T1: FcgRIIa H (FcγRIIa type H) extracellular domain with C-terminal His tag (human, UniProt P12318 34-217)
# T1 construct: extracellular domain; also called FcγRIIa H; not shown: His tag attached to the C terminus
# T1 sequence (looked up): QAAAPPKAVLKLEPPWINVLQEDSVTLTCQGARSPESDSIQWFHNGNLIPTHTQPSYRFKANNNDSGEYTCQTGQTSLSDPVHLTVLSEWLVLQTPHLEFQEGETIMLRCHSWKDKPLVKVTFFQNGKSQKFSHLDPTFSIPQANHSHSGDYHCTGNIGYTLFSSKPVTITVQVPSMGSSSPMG
# T2: FcgRIIa R (FcγRIIa type R) extracellular domain with C-terminal His tag (human, UniProt P12318 34-217)
# T2 construct: extracellular domain; also called FcγRIIa R; not shown: His tag attached to the C terminus
# T2 sequence (looked up): T1 sequence (looked up) with H134R
# T3: FcgRIIb (FcγRIIb) extracellular domain with C-terminal His tag (human, UniProt P31994 43-217)
# T3 construct: extracellular domain; not shown: His tag attached to the C terminus
# T3 sequence (looked up): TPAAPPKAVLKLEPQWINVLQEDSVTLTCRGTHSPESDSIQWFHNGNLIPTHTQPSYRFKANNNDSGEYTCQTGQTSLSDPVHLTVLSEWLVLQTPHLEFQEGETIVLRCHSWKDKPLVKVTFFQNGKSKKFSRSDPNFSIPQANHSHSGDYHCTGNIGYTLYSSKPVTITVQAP
# B1: H240-Kn061/H240-Hl071/L73-k0 variant with Y235A in H240-Kn061 (antibody, human IgG1, kappa)
# heavy 1: QDQLVQSGAEVKKPGASVKVSCKASGFNIKDTYIQWVRQAPGQGLEWMGRIDPLRKQTKYREKFEGRVTITADTSTNTAYMELSSLRSEDTAVYYCVRSGREFDYWGQGTLVTVSSASTKGPSVFPLAPSSKSTSGGTAALGCLVKDYFPEPVTVSWNSGALTSGVHTFPAVLQSSGLYSLSSVVTVPSSSLGTQTYICNVNHKPSNTKVDKKVEPKSCDKTHTCPPCPAPEYAWGPSVFLFPPKPKDTLMISRTPEVTCVVVDVSDEDPEVKFNWYVDGVEVHNAKTKPREEQYNATYRVVSVLTVLHQDWLNGKEYKCKVSNKALPAPIEKTISKAKGQPREPQVCTLPPSRDELTKNQVSLWCLVKGFYPSDIAVEWESNGQPENNYKTTPPVLDSDGSFFLYSKLTVDKSRWQQGNVFSCSVMHEALHNHYTQKSLSLSP
# heavy 2: QDQLVQSGAEVKKPGASVKVSCKASGFNIKDTYIQWVRQAPGQGLEWMGRIDPLRKQTKYREKFEGRVTITADTSTNTAYMELSSLRSEDTAVYYCVRSGREFDYWGQGTLVTVSSASTKGPSVFPLAPSSKSTSGGTAALGCLVKDYFPEPVTVSWNSGALTSGVHTFPAVLQSSGLYSLSSVVTVPSSSLGTQTYICNVNHKPSNTKVDKKVEPKSCDKTHTCPPCPAPELLGGPSVFLFPPKPKDTLMISRTPEVTCVVVDVSHEDPEVKFNWYVDGVEVHNAKTKPREEQYNSTYRVVSVLTVLHQDWLNGKEYKCKVSNDALPMPIEETISKAKGQPREPQVYTLPPSRCELTKNQVSLSCAVKGFYPSDIAVEWESNGQPENNYKTTPPVLDSDGSFFLVSKLTVDKSRWQQGNVFSCSVMHEALHNHYTQKSLSLSP
# light: DIQMTQSPSSLSASVGDRVTITCRASQDIHKYIAWYQQKPGQAPRLLIQYTSTLQPGVPSRFSGSGSGTDYTFTISSLQPEDIATYYCLQYEQLRTFGGGTKVEIKRTVAAPSVFIFPPSDEQLKSGTASVVCLLNNFYPREAKVQWKVDNALQSGNSQESVTEQDSKDSTYSLSSTLTLSKADYEKHKVYACEVTHQGLSSPVTKSFNRGEC
# notes: anti-epiregulin heterodimerized IgG1; also called H240-Kn061 Y235A
# B2: H240-Kn061/H240-Hl071/L73-k0 variant with Y234L in H240-Kn061 (antibody, human IgG1, kappa)
# heavy 1: B1 heavy 1 with Y233L, A234Y
# heavy 2: B1 heavy 2
# light: B1 light
# notes: anti-epiregulin heterodimerized IgG1; also called H240-Kn061 Y234L
# B3: H240-Kn061/H240-Hl071/L73-k0 variant with Y234E in H240-Kn061 (antibody, human IgG1, kappa)
# heavy 1: B1 heavy 1 with Y233E, A234Y
# heavy 2: B1 heavy 2
# light: B1 light
# notes: anti-epiregulin heterodimerized IgG1; also called H240-Kn061 Y234E
# B4: H240-Kn061/H240-Hl071/L73-k0 variant with Y234I in H240-Kn061 (antibody, human IgG1, kappa)
# heavy 1: B1 heavy 1 with Y233I, A234Y
# heavy 2: B1 heavy 2
# light: B1 light
# notes: anti-epiregulin heterodimerized IgG1; also called H240-Kn061 Y234I
# B5: H240-Kn061/H240-Hl071/L73-k0 variant with Y235I in H240-Kn061 (antibody, human IgG1, kappa)
# heavy 1: B1 heavy 1 with A234I
# heavy 2: B1 heavy 2
# light: B1 light
# notes: anti-epiregulin heterodimerized IgG1; also called H240-Kn061 Y235I
# B6: H240-Kn061/H240-Hl071/L73-k0 variant with V240H in H240-Hl071 (antibody, human IgG1, kappa)
# heavy 1: B1 heavy 1 with A234Y
# heavy 2: B1 heavy 2 with V239H
# light: B1 light
# notes: anti-epiregulin heterodimerized IgG1; also called H240-Hl071 V240H
# Tests used:
# Assay in all cases: SPR (Biacore); KD of H240-Kn061/H240-Hl071/L73-k0 divided by KD of the variant
# [1] = target: T1, FcgRIIa H (FcγRIIa type H) …
# Procedure: (§1) The antibodies were assessed for the binding to each FcgR. […] The resultant value was defined as relative KD, and used as an assessment indicator.
# (§2) Analysis of interaction between objective antibody and the FcγR was carried out using Biacore T100 (GE Healthcare), Biacore T200, Biacore A100, and Biacore 4000. HBS-EP+ (GE Healthcare) was used as the running buffer, and the measurement temperature was set to 25° C. Chips produced by immobilizing the antigen peptide by the amine coupling method to a Series S sensor Chip CM5 (GE Healthcare), chips produced by allowing preliminarily biotinylated antigen peptides to interact with and immobilize onto a Series S Sensor Chip SA (certified) (GE Healthcare), chips produced by immobilizing Protein L (ACTIGEN, BioVision) to Series S Sencor Chip CM5 (GE Healthcare), or chips produced by immobilizing Protein A/G (Thermo Scientific) to Series S Sencor Chip CM5 (GE Healthcare) were used. Antibodies of interest were captured onto these chips, and allowed to interact to each FcγR diluted with running buffer.
# [2] = target: T2, FcgRIIa R (FcγRIIa type R) …
# Procedure: as §1, §2
# [3] = target: T3, FcgRIIb (FcγRIIb) extracellular domain …
# Procedure: as §1, §2
# [4] = target: T4, FcgRIIIa F (FcγRIIIa type F) extracellular domain with C-terminal His tag (human, UniProt P08637 17-208)
# T4 construct: extracellular domain; also called FcγRIIIa F; 3aF; not shown: His tag attached to the C terminus
# T4 sequence (P08637 17-208): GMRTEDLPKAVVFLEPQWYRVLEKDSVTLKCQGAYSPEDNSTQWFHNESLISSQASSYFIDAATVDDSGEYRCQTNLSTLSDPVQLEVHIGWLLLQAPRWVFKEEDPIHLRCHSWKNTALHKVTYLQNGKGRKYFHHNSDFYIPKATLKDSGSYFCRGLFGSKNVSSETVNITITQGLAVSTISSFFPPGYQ
# Procedure: as §1, §2
# [5] = target: T5, FcgRIIIa V (FcγRIIIa type V) extracellular domain with C-terminal His tag (human, UniProt P08637 17-208)
# T5 construct: extracellular domain; also called FcγRIIIa V; not shown: His tag attached to the C terminus
# T5 sequence (P08637 17-208 F176V limits assumed): as the sequence (P08637 17-208) above, with F160V counted along it
# Procedure: as §1, §2
# [6] = target: T3, FcgRIIb (FcγRIIb) extracellular domain …; remark: listed apart in the source
# Procedure: as §1, §2
# [7] = target: T4, FcgRIIIa F (FcγRIIIa type F) …; remark: listed apart in the source
# Procedure: as §1, §2
# [8] = target: T5, FcgRIIIa V (FcγRIIIa type V) …; remark: listed apart in the source
# Procedure: as §1, §2
Binder,relative KD [1] [ratio],relative KD [2] [ratio],relative KD [3] [ratio],relative KD [4] [ratio],relative KD [5] [ratio],relative KD [6] [ratio],relative KD [7] [ratio],relative KD [8] [ratio]
B1,0.5,0.5,0.2,1.2,1.3,0.2,1.2,1.3
B2,1.5,2.2,3.5,1.1,1.2,,,
B3,0.7,1.4,0.5,1.9,1.6,0.5,1.9,1.6
B4,2.6,4.1,7.7,1.2,1.3,,,
B5,0.4,0.7,0.2,1.3,1.6,0.2,1.3,1.6
B6,0.8,0.7,0.3,1.3,1,,,
